Assays:
HLA-A*01:01 [1] = experiment: IEDB peptide-MHC binding, purified MHC/direct/fluorescence; filed as Kd, often an IC50 or EC50 that approximates it; ≥ and ≤ were set here for values at or beyond the usual limits of such assays
HLA-A*11:01 = experiment: as above
HLA-A*31:01 = experiment: as above
HLA-A*68:02 = experiment: as above
HLA-A*69:01 = experiment: as above
HLA-B*07:02 = experiment: as above
HLA-B*08:02 = experiment: as above
HLA-B*15:09 = experiment: as above; conditions: source organism: Ravn virus - Ravn, Kenya, 1987
HLA-B*18:01 = experiment: as above; conditions: source organism: Marburg virus - Musoke, Kenya, 1980
HLA-B*27:05 = experiment: as above
HLA-B*48:01 = experiment: as above
HLA-B*57:01 = experiment: as above
HLA-B*58:01 = experiment: as above
HLA-B*73:01 = experiment: as above; conditions: source organism: Marburg virus - Musoke, Kenya, 1980
HLA-A*26:01 [2] = experiment: IEDB peptide-MHC binding, purified MHC/competitive/fluorescence; filed as Kd, often an IC50 or EC50 that approximates it; ≥ and ≤ were set here for values at or beyond the usual limits of such assays; conditions: source organism: Orthomarburgvirus marburgense
HLA-A*26:02 [3] = experiment: as above; conditions: source organism: Orthomarburgvirus marburgense
HLA-A*26:03 = experiment: as above; conditions: source organism: Orthomarburgvirus marburgense
HLA-B*15:01 [4] = experiment: as above; conditions: source organism: Orthomarburgvirus marburgense
HLA-B*15:17 [5] = experiment: as above; conditions: source organism: Orthomarburgvirus marburgense
HLA-B*39:01 = experiment: as above; conditions: source organism: Orthomarburgvirus marburgense
HLA-A*24:02 = experiment: as above
HLA-A*26:02 [6] = experiment: IEDB peptide-MHC binding, purified MHC/direct/fluorescence; filed as Kd, often an IC50 or EC50 that approximates it; ≥ and ≤ were set here for values at or beyond the usual limits of such assays; conditions: source organism: Mycobacterium tuberculosis str. Haarlem
HLA-B*08:01 = experiment: as above
HLA-B*08:03 = experiment: as above; conditions: source organism: Mycobacterium tuberculosis str. Haarlem
HLA-B*15:01 [7] = experiment: as above
HLA-B*15:17 [8] = experiment: as above; conditions: source organism: Mycobacterium tuberculosis
HLA-B*40:01 = experiment: as above
HLA-B*46:01 = experiment: as above; conditions: source organism: Mycobacterium tuberculosis
HLA-A*02:01 [9] = experiment: IEDB peptide-MHC binding, purified MHC/competitive/fluorescence; filed as Kd, often an IC50 or EC50 that approximates it; ≥ and ≤ were set here for values at or beyond the usual limits of such assays; conditions: source organism: Mycobacterium tuberculosis variant bovis BCG str. Pasteur 1173P2
HLA-A*01:01 [10] = experiment: as above; conditions: source organism: Staphylococcus aureus subsp. aureus N315
HLA-A*29:02 = experiment: as above; conditions: source organism: Staphylococcus aureus subsp. aureus N315
HLA-A*32:07 = experiment: as above; conditions: source organism: Staphylococcus aureus subsp. aureus N315
HLA-A*32:15 = experiment: as above; conditions: source organism: Staphylococcus aureus subsp. aureus N315
HLA-B*15:42 = experiment: as above; conditions: source organism: Staphylococcus aureus subsp. aureus N315
HLA-B*45:06 = experiment: as above; conditions: source organism: Staphylococcus aureus subsp. aureus N315
HLA-A*24:03 = experiment: IEDB peptide-MHC binding, purified MHC/direct/fluorescence; filed as Kd, often an IC50 or EC50 that approximates it; ≥ and ≤ were set here for values at or beyond the usual limits of such assays; conditions: source organism: Escherichia coli
HLA-C*04:01 = experiment: as above
HLA-C*06:02 = experiment: as above; conditions: source organism: Rickettsia felis URRWXCal2
HLA-C*14:02 = experiment: as above; conditions: source organism: Rickettsia felis URRWXCal2
HLA-C*15:02 = experiment: as above; conditions: source organism: Rickettsia felis URRWXCal2
HLA-B*15:02 = experiment: IEDB peptide-MHC binding, purified MHC/competitive/fluorescence; filed as Kd, often an IC50 or EC50 that approximates it; ≥ and ≤ were set here for values at or beyond the usual limits of such assays
HLA-A*23:01 = experiment: as above; conditions: source organism: Cryptosporidium parvum Iowa II
HLA-A*02:01 [11] = experiment: IEDB peptide-MHC binding, purified MHC/direct/fluorescence; filed as Kd, often an IC50 or EC50 that approximates it; ≥ and ≤ were set here for values at or beyond the usual limits of such assays; conditions: source organism: Corynebacterium efficiens
HLA-A*03:01 = experiment: as above; conditions: source organism: Corynebacterium efficiens
HLA-A*26:01 [12] = experiment: as above; conditions: source organism: Corynebacterium efficiens
HLA-B*35:01 = experiment: as above; conditions: source organism: Corynebacterium glutamicum
[13] = source organism: Marburg virus - Musoke, Kenya, 1980
[14] = source organism: Mycobacterium tuberculosis
[15] = source organism: Mycobacterium tuberculosis str. Haarlem
[16] = source organism: Corynebacterium glutamicum
[17] = source organism: Corynebacterium efficiens

Sequence: ARHGEYAPF
- Kd (HLA-A*01:01 [1]; [13]): ≥ 20 µM
- Kd (HLA-A*11:01; [13]): ≥ 20 µM
- Kd (HLA-A*31:01; [13]): ≥ 20 µM
- Kd (HLA-A*68:02; [13]): ≥ 20 µM
- Kd (HLA-A*69:01; [13]): ≥ 20 µM
- Kd (HLA-B*07:02; [13]): ≥ 20 µM
- Kd (HLA-B*08:02; source organism: Ravn virus - Ravn, Kenya, 1987): ≥ 20 µM
- Kd (HLA-B*15:09): ≥ 20 µM
- Kd (HLA-B*18:01): ≥ 20 µM
- Kd (HLA-B*27:05; [13]): 0.168 µM
- Kd (HLA-B*48:01; [13]): ≥ 20 µM
- Kd (HLA-B*57:01; [13]): ≥ 20 µM
- Kd (HLA-B*58:01; [13]): ≥ 20 µM
- Kd (HLA-B*73:01): ≥ 20 µM
- Kd (HLA-A*26:01 [2]): 4 µM
- Kd (HLA-A*26:02 [3]): 0.738 µM
- Kd (HLA-A*26:03): ≥ 20 µM
- Kd (HLA-B*15:01 [4]): 3.34 µM
- Kd (HLA-B*15:17 [5]): ≥ 20 µM
- Kd (HLA-B*39:01): 1.09 µM

Sequence: EYLRIPLTI
- Kd (HLA-A*24:02; source organism: Entamoeba histolytica HM-1:IMSS): ≤ 0.0001 µM

Sequence: KLVGIELPK
- Kd (HLA-A*01:01 [1]; [14]): ≥ 20 µM
- Kd (HLA-A*11:01; [14]): 0.0733 µM
- Kd (HLA-A*26:02 [6]): ≥ 20 µM
- Kd (HLA-A*31:01; [14]): 6.82 µM
- Kd (HLA-A*68:02; [14]): ≥ 20 µM
- Kd (HLA-A*69:01; [14]): ≥ 20 µM
- Kd (HLA-B*07:02; [14]): ≥ 20 µM
- Kd (HLA-B*08:01; [15]): ≥ 20 µM
- Kd (HLA-B*08:02; [15]): ≥ 20 µM
- Kd (HLA-B*08:03): ≥ 20 µM
- Kd (HLA-B*15:01 [7]; [14]): ≥ 20 µM
- Kd (HLA-B*15:17 [8]): ≥ 20 µM
- Kd (HLA-B*27:05; [14]): ≥ 20 µM
- Kd (HLA-B*40:01; [14]): ≥ 20 µM
- Kd (HLA-B*46:01): ≥ 20 µM
- Kd (HLA-B*48:01; [14]): ≥ 20 µM
- Kd (HLA-B*57:01; [14]): ≥ 20 µM
- Kd (HLA-B*58:01; [14]): ≥ 20 µM
- Kd (HLA-A*02:01 [9]): ≥ 20 µM

Sequence: MVIKWIHER
- Kd (HLA-A*01:01 [10]): 17 µM
- Kd (HLA-A*29:02): 0.548 µM
- Kd (HLA-A*32:07): 0.203 µM
- Kd (HLA-A*32:15): 0.0525 µM
- Kd (HLA-B*15:42): ≥ 5 µM
- Kd (HLA-B*45:06): ≥ 5 µM

Sequence: MYTRNLLWL
- Kd (HLA-A*24:03): 0.0018 µM
- Kd (HLA-C*04:01; source organism: Escherichia coli HS): ≥ 20 µM

Sequence: RWLPLVSLF
- Kd (HLA-C*06:02): ≥ 20 µM
- Kd (HLA-C*14:02): 0.399 µM
- Kd (HLA-C*15:02): ≥ 20 µM
- Kd (HLA-A*24:02; source organism: Rickettsia felis URRWXCal2): ≤ 0.0001 µM

Sequence: SLYDIITVM
- Kd (HLA-B*15:02; source organism: Listeria monocytogenes): ≥ 20 µM

Sequence: TFMGMNVQF
- Kd (HLA-C*04:01; source organism: Cryptosporidium parvum Iowa II): ≥ 20 µM
- Kd (HLA-A*23:01): 0.0012 µM

Sequence: VQLQEYDTY
- Kd (HLA-A*01:01 [1]; [16]): ≥ 5 µM
- Kd (HLA-A*02:01 [11]): ≥ 20 µM
- Kd (HLA-A*03:01): ≥ 20 µM
- Kd (HLA-A*11:01; [17]): ≥ 20 µM
- Kd (HLA-A*26:01 [12]): ≥ 20 µM
- Kd (HLA-A*31:01; [17]): ≥ 20 µM
- Kd (HLA-A*69:01; [17]): ≥ 20 µM
- Kd (HLA-B*07:02; [17]): ≥ 20 µM
- Kd (HLA-B*08:01; [17]): ≥ 20 µM
- Kd (HLA-B*15:01 [7]; [16]): 0.199 µM
- Kd (HLA-B*27:05; [17]): ≥ 20 µM
- Kd (HLA-B*35:01): 0.383 µM
- Kd (HLA-B*40:01; [17]): ≥ 20 µM
- Kd (HLA-B*58:01; [17]): ≥ 20 µM
- Kd (HLA-B*15:02; [17]): ≥ 20 µM

From the Immune Epitope Database (IEDB)
